Data taken from patent publication US20180326058A1 (Chugai, published 2018).

Columns and labels:
[1] = target: T1, mouse FcgRI (mouse, UniProt P26151 25-297); experiment: SPR Biacore T200, antibody captured on Protein A/G, FcgR as analyte, 25 C
T1 construct: Used as the soluble analyte in Biacore; also called mFcgRI
T1 sequence (looked up): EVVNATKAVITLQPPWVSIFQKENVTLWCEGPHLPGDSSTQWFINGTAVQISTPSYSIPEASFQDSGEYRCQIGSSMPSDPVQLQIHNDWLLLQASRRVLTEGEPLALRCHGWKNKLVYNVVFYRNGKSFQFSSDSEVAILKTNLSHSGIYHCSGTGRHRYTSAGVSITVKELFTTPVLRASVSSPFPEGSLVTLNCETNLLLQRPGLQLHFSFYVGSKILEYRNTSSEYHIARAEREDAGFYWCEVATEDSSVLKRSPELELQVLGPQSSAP
Method: (§1) Anti-mouse CTLA4 antibody hUH02hUL01-mFa55 and control antibody hUH02hUL01-mIgG2a (the heavy chain variable region UH02 is SEQ ID NO: 28, the light chain variable region UL01 is SEQ ID NO: 29, the heavy chain constant region mIgG2a is SEQ ID NO: 32, and the light chain constant region mk1 is SEQ ID NO: 31) purified and prepared by the method of Reference Example 2-1 were analyzed for their antigen-antibody reactions with various mouse FcgRs (mFcgRI, II, III, and IV) using Biacore T200 (GE Healthcare). The running buffer used was 20 mmol/L ACES, 150 mmol/L NaCl, 0.05% (w/v) Tween20 at pH7.4, and measurements were taken at 25° C. Protein A/G was immobilized onto a Sensor Chip CM7 by amine coupling. hUH02hUL01-mFa55 was captured onto the sensorchip, and then FcgR was allowed to interact as an analyte for 120 seconds, and change in the bound amount was observed. The running buffer was used for dilution of hUH02hUL01-mFa55. The measurement results were analyzed by curve fitting using the Biacore T200 Evaluation Software (GE Healthcare) to calculate the association rate constants ka (1/Ms) and the dissociation rate constants kd (l/s). From those values, the dissociation constants KD (M) were determined.

[2] = target: T2, mouse FcgRII (mouse, UniProt P08101 30-210); experiment: as above
T2 construct: Used as the soluble analyte in Biacore; also called mFcgRII
T2 sequence (looked up): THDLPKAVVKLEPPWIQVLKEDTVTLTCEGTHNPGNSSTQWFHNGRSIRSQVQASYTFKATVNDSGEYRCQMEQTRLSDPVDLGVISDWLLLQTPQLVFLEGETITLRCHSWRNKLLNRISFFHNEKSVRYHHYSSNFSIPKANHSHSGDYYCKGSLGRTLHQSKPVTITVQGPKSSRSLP
Method: as §1

[3] = target: T3, mouse FcgRIII (mouse, UniProt P08508 31-215); experiment: as above
T3 construct: Used as the soluble analyte in Biacore; also called mFcgRIII
T3 sequence (looked up): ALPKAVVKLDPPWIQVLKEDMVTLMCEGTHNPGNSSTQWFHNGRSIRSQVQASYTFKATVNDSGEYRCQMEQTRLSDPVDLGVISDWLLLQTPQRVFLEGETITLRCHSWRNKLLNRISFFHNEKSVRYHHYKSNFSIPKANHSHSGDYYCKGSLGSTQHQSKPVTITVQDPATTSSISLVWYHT
Method: as §1

[4] = target: T4, mouse FcgRIV (mouse, UniProt A0A0B4J1G0 21-203); experiment: as above
T4 construct: Used as the soluble analyte in Biacore; also called mFcgRIV
T4 sequence: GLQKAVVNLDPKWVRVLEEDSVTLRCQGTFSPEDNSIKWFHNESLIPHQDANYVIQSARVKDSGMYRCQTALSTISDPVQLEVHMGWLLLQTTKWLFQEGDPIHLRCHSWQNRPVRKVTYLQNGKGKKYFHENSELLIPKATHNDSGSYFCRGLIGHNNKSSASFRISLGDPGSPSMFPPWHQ
Method: as §1

[5] = target: T5, mouse CD3 (mouse); experiment: SPR Biacore T200, bispecific antibody captured on Protein A/G, antigen as analyte, 37 C
T5 chain: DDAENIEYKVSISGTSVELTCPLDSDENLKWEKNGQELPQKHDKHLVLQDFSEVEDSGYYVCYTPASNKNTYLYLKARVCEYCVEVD
Method: (§2) Anti-mouse CTLA4/anti-mouse CD3 bispecific antibodies (hUH02UL01/2C11-F760) purified and prepared by the method of Reference Example 3-1 were analyzed for their antigen-antibody reactions with each antigen (mCTLA4 and mCD3) using Biacore T200 (GE Healthcare). The running buffer used was HBS-EP+ at pH7.4, and measurements were taken at 37° C. Protein A/G was immobilized onto a Sensor Chip CM4 by amine coupling. hUH02UL01/2C11-F760 was captured onto the sensor chip, and then the antigen (mouse CTLA4 or mouse CD3) was allowed to interact as an analyte (for 120 seconds for mouse CTLA4 and for 90 seconds for mouse CD3), and changes in the bound amount were observed. The running buffer was used for dilution of hUH02UL01/2C11-F760. The measurement results were analyzed by curve fitting using the Biacore T200 Evaluation Software (GE Healthcare) to calculate the association rate constants ka (1/Ms) and the dissociation rate constants kd (l/s). From those values, the dissociation constants KD (M) were determined.

[6] = target: T6, mouse CTLA4 (mouse, UniProt P09793 36-161, limits assumed); experiment: as above
T6 construct: Soluble antigen used as the analyte in Biacore; also called mCTLA4
Method: as §2

B1: control antibody hUH02hUL01-mIgG2a (antibody)
heavy: QVQLQESGPGLVKPSETLSLTCTVSGYSISSGYGWNWIRQPPGKGLEWIGFIYYEGSTYYNPSIKSRISITRDTSKNQFFLQVNSVTTEDTATYYCARQTGYFDYWGQGTLVTVSSAKTTAPSVYPLAPVCGDTTGSSVTLGCLVKGYFPEPVTLTWNSGSLSSGVHTFPAVLQSDLYTLSSSVTVTSSTWPSQSITCNVAHPASSTKVDKKIEPRGPTIKPCPPCKCPAPNLLGGPSVFIFPPKIKDVLMISLSPIVTCVVVDVSEDDPDVQISWFVNNVEVHTAQTQTHREDYNSTLRVVSALPIQHQDWMSGKEFKCKVNNKDLPAPIERTISKPKGSVRAPQVYVLPPPEEEMTKKQVTLTCMVTDFMPEDIYVEWTNNGKTELNYKNTEPVLDSDGSYFMYSKLRVEKKNWVERNSYSCSVVHEGLHNHHTTKSFSRTPGK
light: DIVMTQSPDSLAVSLGERATINCKSSQSLFNSNAKTNYLNWYQQKPGQPPKLLIYYASTRHTGVPDRFSGSGSGTDFTLTISSLQAEDVAVYYCQQWYDYPYTFGAGTKVEIKRADAAPTVSIFPPSSEQLTSGGASVVCFLNNFYPKDINVKWKIDGSERQNGVLNSWTDQDSKDSTYSMSSTLTLTKDEYERHNSYTCEATHKTSTSPIVKSFNRNEC
notes: Same variable regions as hUH02hUL01-mFa55, with an unmodified mouse IgG2a constant region
Kd [1]: 6.1 nM | koff [1]: 0.0047 s⁻¹ | kon [1]: 780000 M⁻¹ s⁻¹ | Kd [2]: 780 nM | koff [2]: 1.1 s⁻¹ | kon [2]: 1.3e+06 M⁻¹ s⁻¹ | Kd [3]: 250 nM | koff [3]: 0.51 s⁻¹ | kon [3]: 2e+06 M⁻¹ s⁻¹ | Kd [4]: 13 nM | koff [4]: 0.016 s⁻¹ | kon [4]: 1.2e+06 M⁻¹ s⁻¹

B2: anti-mouse CTLA4 antibody hUH02hUL01-mFa55 (antibody, mouse IgG2a, kappa)
heavy: QVQLQESGPGLVKPSETLSLTCTVSGYSISSGYGWNWIRQPPGKGLEWIGFIYYEGSTYYNPSIKSRISITRDTSKNQFFLQVNSVTTEDTATYYCARQTGYFDYWGQGTLVTVSSAKTTAPSVYPLAPVCGDTTGSSVTLGCLVKGYFPEPVTLTWNSGSLSSGVHTFPAVLQSDLYTLSSSVTVTSSTWPSQSITCNVAHPASSTKVDKKIEPRGPTIKPCPPCKCPAPNLLGGPDVFIFPPKIKDVLMISLSPIVTCVVVDVSEDDPDVQISWFVNNVEVHTAQTQTHREDYNSTLRVVSALPIQHQDWMSGKEFKCKVNNKDLPAPIERTISKPKGSVRAPQVYVLPPPEEEMTKKQVTLTCMVTDFMPEDIYVEWTNNGKTELNYKNTEPVLDSDGSYFMYSKLRVEKKNWVERNSYSCSVVHEGLHNHHTTKSFSRTPGK
light: DIVMTQSPDSLAVSLGERATINCKSSQSLFNSNAKTNYLNWYQQKPGQPPKLLIYYASTRHTGVPDRFSGSGSGTDFTLTISSLQAEDVAVYYCQQWYDYPYTFGAGTKVEIKRADAAPTVSIFPPSSEQLTSGGASVVCFLNNFYPKDINVKWKIDGSERQNGVLNSWTDQDSKDSTYSMSSTLTLTKDEYERHNSYTCEATHKTSTSPIVKSFNRNEC
notes: Mouse IgG2a/kappa format; also called hUH02UL01-mFa55; ADCC-enhanced antibody
Kd [1]: 2.5 nM | koff [1]: 0.0031 s⁻¹ | kon [1]: 1.2e+06 M⁻¹ s⁻¹ | Kd [2]: 370 nM | koff [2]: 0.76 s⁻¹ | kon [2]: 2.1e+06 M⁻¹ s⁻¹ | Kd [3]: 260 nM | koff [3]: 0.62 s⁻¹ | kon [3]: 2.4e+06 M⁻¹ s⁻¹ | Kd [4]: 1.9 nM | koff [4]: 0.0028 s⁻¹ | kon [4]: 1.5e+06 M⁻¹ s⁻¹

B3: anti-mouse CTLA4/anti-mouse CD3 bispecific antibody (hUH02UL01/2C11-F760) (bispecific antibody, human IgG1, kappa, N297A)
heavy 1: QVQLQESGPGLVKPSETLSLTCTVSGYSISSGYGWNWIRQPPGKGLEWIGFIYYEGSTYYNPSIKSRISITRDTSKNQFFLQVNSVTTEDTATYYCARQTGYFDYWGQGTLVTVSSASTKGPSVFPLAPSSKSTSGGTAALGCLVKDYFPEPVTVSWNSGALTSGVHTFPAVLQSSGLYSLSSVVTVPSSSLGTQTYICNVNHKPSNTKVDKKVEPKSCDKTHTCPPCPAPELRGGPKVFLFPPKPKDTLMISRTPEVTCVVVDVSHEDPEVKFNWYVDGVEVHNAKTKPREEQYASTYRVVSVLTVLHQDWLNGKEYKCKVSNKALPAPIEKTISKAKGQPREPQVYTLPPSRDELTKNQVSLTCLVKGFYPSDIAVEWESNGQPENNYKTTPPYLDSDGSFFLYSKLTVDKSRWQQGNVFSCSVMHEALHNHYTQESLSLSP
light 1: not shown
heavy 2: EVQLVESGGGLVQPGKSLKLSCEASGFTFSGYGMHWVRQAPGRGLESVAYITSSSINIKYADAVKGRFTVSRDNAKNLLFLQMNILKSEDTAMYYCARFDWDKNYWGQGTMVTVSSASTKGPSVFPLAPSSKSTSGGTAALGCLVKDYFPEPVTVSWNSGALTSGVHTFPAVLQSSGLYSLSSVVTVPSSSLGTQTYICNVNHKPSNTKVDKKVEPKSCDKTHTCPPCPAPELRGGPKVFLFPPKPKDTLMISRTPEVTCVVVDVSHEDPEVKFNWYVDGVEVHNAKTKPREEQYASTYRVVSVLTVLHQDWLNGKEYKCKVSNKALPAPIEKTISKAKGQPREPQVYTLPPSRKELTKNQVSLTCLVKGFYPSDIAVEWESNGQPENNYKTTPPYLDSDGSFFLYSKLTVDKSRWQQGNVFSCSVMHEALHNHYTQKSLSLSP
light 2: DIQMTQSPSSLPASLGDRVTINCQASQDISNYLNWYQQKPGKAPKLLIYYTNKLADGVPSRFSGSGSGRDSSFTISSLESEDIGSYYCQQYYNYPWTFGPGTKLEIKRTVAAPSVFIFPPSDEQLKSGTASVVCLLNNFYPREAKVQWKVDNALQSGNSQESVTEQDSKDSTYSLSSTLTLSKADYEKHKVYACEVTHQGLSSPVTKSFNRGEC
notes: also called T cell-redirecting antibody
Kd [5]: 1160 nM | koff [5]: 0.0712 s⁻¹ | kon [5]: 61600 M⁻¹ s⁻¹ | Kd [6]: 1.23 nM | koff [6]: 0.00053 s⁻¹ | kon [6]: 430000 M⁻¹ s⁻¹
